Data as given in US20230133118A1 (ADAGENE, published 2023).

Columns and labels:
[1] = biological target: T1, human CD137 (human, UniProt Q07011 24-186); assay: surface plasmon resonance (SPR); format not described
T1 construct: also called CD137 receptor; 4-1BB

[2] = biological target: T2, rat CD137 (rat); assay: not described; the reference is not named in the sentence (monkey and human CD137 in the sentences before)
T2 construct: It was recombinantly expressed in reporter cells for the NFkB assay; also called rodent CD137 receptors (rat)

[3] = biological target: T3, mouse CD137 (mouse, UniProt P20334 24-187, limits assumed); assay: as above
T3 construct: It was recombinantly expressed in reporter cells for the NFkB assay; also called rodent CD137 receptors (mouse)
T3 sequence (looked up): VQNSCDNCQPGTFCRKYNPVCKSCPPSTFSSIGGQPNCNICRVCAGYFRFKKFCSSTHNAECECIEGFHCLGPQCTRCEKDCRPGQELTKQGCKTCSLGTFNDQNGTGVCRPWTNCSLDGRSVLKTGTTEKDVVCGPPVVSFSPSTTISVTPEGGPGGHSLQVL

[4] = biological target: cynomolgus monkey CD137 (cynomolgus monkey, UniProt A9YYE7 24-254); assay: cell-based or functional assay
[5] = biological target: T3, mouse CD137; assay: cell-based or functional assay

cynomolgus monkey CD137, sequence (A9YYE7 entry or part of it): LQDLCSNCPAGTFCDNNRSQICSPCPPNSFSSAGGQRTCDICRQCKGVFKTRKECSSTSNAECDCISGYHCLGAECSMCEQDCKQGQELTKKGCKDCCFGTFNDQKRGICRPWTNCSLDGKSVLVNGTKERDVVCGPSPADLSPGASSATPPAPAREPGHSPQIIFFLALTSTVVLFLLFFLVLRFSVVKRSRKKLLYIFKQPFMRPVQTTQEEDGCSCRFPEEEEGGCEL
T1 sequence (Q07011 24-186 limits assumed): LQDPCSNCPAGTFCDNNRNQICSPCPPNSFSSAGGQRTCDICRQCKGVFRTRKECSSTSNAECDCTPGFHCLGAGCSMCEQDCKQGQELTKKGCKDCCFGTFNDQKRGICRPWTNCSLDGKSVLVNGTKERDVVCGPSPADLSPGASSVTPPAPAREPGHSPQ

B1: ADG106 (antibody, human IgG4 S228P, kappa, V domains shown)
VH: EVQLVESGGGLVQPGGSLRLSCAASGFSLSTGGVGVGWIRQAPGKGLEWLALIDWADDKYYSPSLKSRLTISRDNSKNTLYLQLNSLRAEDTAVYYCARGGSDTVIGDWFAYWGQGTLVTVSS
VL: DIQLTQSPSSLSASVGDRVTITCRASQSIGSYLAWYQQKPGKAPKLLIYDASNLETGVPSRFSGSGSGTDFTLTISSLQPEDFATYYCQQGYYLWTFGQGTKVEIKR
notes: also called anti-CD137 antibody ADG106; fully human agonistic anti-CD137 monoclonal IgG4 antibody
Binder B1 has a Kd [1] of 3.7 nM, a fold lower affinity [2] greater than 100 fold and a fold lower affinity [3] greater than 100 fold. The “EC50 (read off the curve) (NFkB reporter, 293T cells expressing monkey CD137)” value [4] was roughly 0.3 µg/mL and the “EC50 (read off the curve) (NFkB reporter, 293T cells expressing mouse CD137)” value [5] was roughly 0.4 µg/mL.
